From the supplement of paper PMC9170038

Tested on: MS2 coat protein
Assay: apparent KD of MS2 coat protein; designed switch direction (-1 OFF switch, 1 ON switch): -1; higher = weaker reporter binding
Outline: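 Designed RNA switches sharing common flanks were transcribed on Illumina chips by stalled E. coli RNA polymerase. They were titrated with SNAP-549-labelled MS2 coat protein, from 0.7 or 1.5 nM doubling to 3 µM, in Tris-HCl pH 7.5 buffer with KCl, MgCl2, BSA, DTT, tRNA and Tween-20. Titrations ran without input, with 200 uM small-molecule ligand, or with an oligonucleotide input. The apparent KD of each design is the median over its clusters, after curve-fitting of normalised cluster fluorescence.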

[1] = input ligand: microRNA oligo, concentration not stated
[2] = Eterna round: R95, input ligand: microRNA oligo, concentration not stated
[3] = Eterna round: R95, input ligand: FMN 200 uM
[4] = Eterna round: R95, input ligand: none

Sequence: CACCGUUACAGAGGAUAUGGUACAUGAGGAUCACCCAUGUAAUAAAUGAGAAUUUCGGAUGUAUUCCAGAAGGCUGAAAUCGGC [Ostricism 64 - Jieux - Exclusion NG 2] (Eterna round: R96, puzzle: Exclusion NG 2)
- apparent KD of MS2 coat protein (input ligand: FMN 200 uM): 0.0502 µM
- apparent KD of MS2 coat protein [1]: 0.0302 µM
- apparent KD of MS2 coat protein (input ligand: none): 0.0468 µM

Sequence: GCUUGUAGAGGAUAUACGAGGGCCCGAGCGGAUAACACCGCACAUGAGGAUCACCCAUGUAGAAGGCUACUAUU [JL-ex2-4.18 ViennaUCT mod] (Eterna round: R97, puzzle: Exclusion 2)
- apparent KD of MS2 coat protein (input ligand: FMN 200 uM): 0.096 µM
- apparent KD of MS2 coat protein (input ligand: none): 0.105 µM

Sequence: GCUAGGAGUGUGAGGAUAUGCUGUUCCUUGGAACAGCAGAAGGCACAUGAGGAUCACCCAUGUGAAGACCUAGC [Mat - Exclusion 4 - JL Mod - D3] (Eterna round: R97, puzzle: Brourd's mod of Exclusion 4)
- apparent KD of MS2 coat protein (input ligand: FMN 200 uM): 0.149 µM
- apparent KD of MS2 coat protein (input ligand: none): 0.0245 µM

Sequence: UAAAUGUGAGGAUAUCAGGUGUGCUAGCAUACUGGUACAUCUGAGAAGGCACAUGAGGAUCACCCAUGUUCCUU [Mat - Exclusion 4 - Mod of JL - D52] (puzzle: Exclusion 4)
- apparent KD of MS2 coat protein [2]: 0.0167 µM

Sequence: GCCGUAAAUGUGAGGAUAUACCUAUGGAUACAUAGGUAGAAGGCACAUGAGGAUCACCCAUGUUCCAAAUCGGC [Eli bmx4 4.07] (Eterna round: R97, puzzle: Brourd's mod of Exclusion 4)
- apparent KD of MS2 coat protein (input ligand: FMN 200 uM): 0.0479 µM
- apparent KD of MS2 coat protein (input ligand: none): 0.132 µM

Sequence: CACACCUCCGUCAGGAUAUUAAGGCACCGCCGCCAUGAGAAGGGACAUGAGGAUCACCCAUGUUAAUCGUGGAA [Betibier] (Eterna round: R97, puzzle: Brourd's mod of Exclusion 4)
- apparent KD of MS2 coat protein (input ligand: FMN 200 uM): 0.226 µM
- apparent KD of MS2 coat protein (input ligand: none): 0.0205 µM

Sequence: UAUAAGAUAGGAUAUACAGGCCCGUCUUCAUAUCGAUCCCGACAUGAGGAUCACCCAUGUAGAAGGAUCGUGAG [Mod 21 - Jieux - Exclusion 2] (Eterna round: R97, puzzle: Exclusion 2)
- apparent KD of MS2 coat protein (input ligand: FMN 200 uM): 0.0138 µM
- apparent KD of MS2 coat protein (input ligand: none): 0.0137 µM

Sequence: AUUUAGCAAGUUAGAUCCUACAUGAGGAUCACCCAUGUUGUUCGUCUUAUUUGAAGACAACACAAAAGUGUUGUCUU [Omei Mir OFFv1 B3] (Eterna round: R97, puzzle: Sensor, turn-off variant 1)
- apparent KD of MS2 coat protein (input ligand: FMN 200 uM): 0.107 µM
- apparent KD of MS2 coat protein (input ligand: none): 0.1 µM

Sequence: CUGUACUGAGGAUAUACAUGAGGAUCACCCAUGUUCUUCAGCUAGGAAACUAGCAAAGGUAGAAGGCAGUACAG [Mat - Exclusion 3 - Eli Mod - D69] (Eterna round: R97, puzzle: Exclusion 3)
- apparent KD of MS2 coat protein (input ligand: FMN 200 uM): 0.784 µM
- apparent KD of MS2 coat protein (input ligand: none): 0.0343 µM

Sequence: ACAUGUUGUGCAGGAUAUGGGACACAUGAGGAUCACCCAUGUGGCUACAUGUCAUACCAAGCGUCUCAGAAGGGUAUUAACAUG [Ex NG2 #37] (Eterna round: R96, puzzle: Exclusion NG 2)
- apparent KD of MS2 coat protein (input ligand: FMN 200 uM): 0.0319 µM
- apparent KD of MS2 coat protein [1]: 0.0248 µM
- apparent KD of MS2 coat protein (input ligand: none): 0.0232 µM

Sequence: CCGACUCAAGGAUAUUGUACUGCUGACAUGAGGAUCACCCAUGUAUGUUAACUCGGCCGACGAGAAGGUGACGACA [BotMod 1 - Jieux - Exclusion 5] (Eterna round: R97, puzzle: Exclusion 5)
- apparent KD of MS2 coat protein (input ligand: FMN 200 uM): 0.0396 µM
- apparent KD of MS2 coat protein (input ligand: none): 0.0431 µM

Sequence: GAGGAUAGAGGAUAUGCAUAGAUACGGAUUCGUGUAGUACUACAUGAGGAUCACCCAUGUAGAAGGCUGUCCAG [Mat - Exclusion 2 - Mod of JL - D75] (puzzle: Exclusion 2)
- apparent KD of MS2 coat protein [2]: 0.0128 µM

Sequence: UUAUUUAGGUAGGAUAUCGAUAUUAAUUAUUAUCGAGAAGGGUCUACAUGAGGAUCACCCAUGUUAGCAUGUUU [LRO-Excl6-09-Rocketman] (Eterna round: R97, puzzle: Exclusion 6)
- apparent KD of MS2 coat protein (input ligand: FMN 200 uM): 0.0233 µM
- apparent KD of MS2 coat protein (input ligand: none): 0.0293 µM

Sequence: AAGAAACAUGAGGAUCACCCAUGUGAGGAUAUGAAAAAGAAAAGAAAAGAAAGAAGAAUCAGAAGGCACAAAGC [salish99-ex1_r3_090] (Eterna round: R96, puzzle: Exclusion 1)
- apparent KD of MS2 coat protein (input ligand: FMN 200 uM): 0.024 µM
- apparent KD of MS2 coat protein [1]: 0.0253 µM
- apparent KD of MS2 coat protein (input ligand: none): 0.0312 µM

Sequence: AAACCCUGAGGAUAUACAUAACAACAAACCCUCACGUGCCAACAUGAGGAUCACCCAUGUAGAAGGCAGGCCAA [Mod R3 Insanara 6 - Jieux - Exclusion 2] (Eterna round: R97, puzzle: Exclusion 2)
- apparent KD of MS2 coat protein (input ligand: FMN 200 uM): 0.0643 µM
- apparent KD of MS2 coat protein (input ligand: none): 0.0187 µM

Sequence: AGUUCACAUGAGGAUCACCCAUGUGAGGAUAUGGAUUCGCUGGCCGUAGCCAGUGGAUCCAGAAGGCGCGUGAU [JL-ex1-4.15] (Eterna round: R97, puzzle: Exclusion 1)
- apparent KD of MS2 coat protein (input ligand: FMN 200 uM): 0.0557 µM
- apparent KD of MS2 coat protein (input ligand: none): 0.0651 µM

Sequence: UGCGGGCUUUUGAGACCUCACAUGAGGAUCACCCAUGUGCUUGUCUUGUGAGUGGGUAGGUCGUUGGCUGACUCACG [Sensor-V1 #99] (Eterna round: R97, puzzle: Sensor, turn-off variant 1)
- apparent KD of MS2 coat protein (input ligand: FMN 200 uM): 0.0234 µM
- apparent KD of MS2 coat protein (input ligand: none): 0.0231 µM

Sequence: AUUUAGAGAGGAUAUAUAAAGUGAAACAUGAGGAUCACCCAUGUAAUUUUAUGGAUGUAAAUAGAAGGCUCAUUUA [Mat - Exclusion 5 - JL mod - D1] (puzzle: Exclusion 5)
- apparent KD of MS2 coat protein [3]: 0.0237 µM
- apparent KD of MS2 coat protein [2]: 0.0289 µM
- apparent KD of MS2 coat protein [4]: 0.0301 µM

Sequence: UUUCGUGUGCGGGCUUUUUACAUGAGGAUCACCCAUGUCCUCUGCUUGUCUUGUCUUGGGCUUUUUUUGGGUUCGGG [-19.4, -42 kcal, A 8%] (Eterna round: R97, puzzle: Sensor, turn-off variant 1)
- apparent KD of MS2 coat protein (input ligand: FMN 200 uM): 0.56 µM
- apparent KD of MS2 coat protein (input ligand: none): 0.836 µM

Sequence: UAUAAUUUUUUUUUUUUACAAGCUUUUUGCUCGUCUUAUACAUGAGGAUCACCCAUGUGGGUGAAAGAUAGAUUGUC [JMF's solution 2] (puzzle: Sensor v3, turn-off variant 2)
- apparent KD of MS2 coat protein [3]: 0.0377 µM
- apparent KD of MS2 coat protein [2]: 0.0155 µM
- apparent KD of MS2 coat protein [4]: 0.0412 µM

Sequence: AUGGUACAUGAGGAUCACCCAUGUUAGGAUAUCGCGUGACCUAAAACUAAGAGACACACGAGAAGGGACGACAU (puzzle: Exclusion 1)
- apparent KD of MS2 coat protein [2]: 0.0773 µM

Sequence: GCGCCAUCGUGAGAUGGCGUUCCGACAUGAGGAUCACCCAUGUAGGAUAUCGAUUGCUUUGCAGUCGAGAAGGGCGUGAUAAGU [JL ENG3 3.73] (Eterna round: R96, puzzle: Exclusion NG 3)
- apparent KD of MS2 coat protein (input ligand: FMN 200 uM): 0.0183 µM
- apparent KD of MS2 coat protein [1]: 0.0178 µM
- apparent KD of MS2 coat protein (input ligand: none): 0.0229 µM

Sequence: AAUAAGGGAGGAUAUGCGGAACGGUUUGUUCUCAGUGAGGCACAUGAGGAUCACCCAUGUAGAAGGCCCGGCAA [Orinar] (Eterna round: R96, puzzle: Exclusion 2)
- apparent KD of MS2 coat protein (input ligand: FMN 200 uM): 0.0634 µM
- apparent KD of MS2 coat protein [1]: 0.0121 µM
- apparent KD of MS2 coat protein (input ligand: none): 0.0174 µM

Sequence: UAUUUAUAUGAAGGAUAUACUUAACAUGAGGAUCACCCAUGUGGUGUUGUGAGUGAGUGAGUUUAGUAGAAGGUCAAGUAUUUU [JMF's solution 53] (Eterna round: R96, puzzle: Exclusion NG 2)
- apparent KD of MS2 coat protein (input ligand: FMN 200 uM): 0.844 µM
- apparent KD of MS2 coat protein [1]: 0.378 µM
- apparent KD of MS2 coat protein (input ligand: none): 0.456 µM

Sequence: ACAAGCUUUUUGUUCGUCUUAUAAUAUUAAAUAAAGAUAACAUGAGGAUCACCCAUGUAACAAAGACGGACUCAUGU [Sesor Array 17 - Jieux - Sensor v3, turn-off variant 2] (puzzle: Sensor v3, turn-off variant 2)
- apparent KD of MS2 coat protein [3]: 0.0162 µM
- apparent KD of MS2 coat protein [2]: 0.2 µM
- apparent KD of MS2 coat protein [4]: 0.0138 µM
